This passage reports Km results from ChEMBL document CHEMBL2074141, “Comparison of lactate transport in astroglial cells and monocarboxylate transporter 1 (MCT 1) expressing Xenopus laevis oocytes. Expression of two different monocarboxylate transporters in astroglial cells and neurons” (J Biol Chem, 1997).

Substrate in this data set: C[C@@H](O)C(=O)O
Put plainly: TP_TRANSPORTER: uptake in Xenopus laevis oocytes. It counts as functional, cell-based. The conditions noted are these: Oocyte.

B1: Monocarboxylate transporter 1 (Rattus norvegicus), P53987 (protein)
chain: MPPAIGGPVGYTPPDGGWGWAVVVGAFISIGFSYAFPKSITVFFKEIEIIFSATTSEVSWISSIMLAVMYAGGPISSILVNKYGSRPVMIAGGCLSGCGLIAASFCNTVQELYFCIGVIGGLGLAFNLNPALTMIGKYFYKKRPLANGLAMAGSPVFLSTLAPLNQAFFGIFGWRGSFLILGGLLLNCCVAGSLMRPIGPQQGKVEKLKSKESLQEAGKSDANTDLIGGSPKGEKLSVFQTVNKFLDLSLFTHRGFLLYLSGNVVMFFGLFTPLVFLSNYGKSKHFSSEKSAFLLSILAFVDMVARPSMGLAANTRWIRPRVQYFFAASVVANGVCHLLAPLSTTYVGFCIYAGVFGFAFGWLSSVLFETLMDLVGPQRFSSAVGLVTIVECCPVLLGPPLLGRLNDMYGDYKYTYWACGVILIIAGLYLFIGMGINYRLVAKEQKAEEKKRDGKEDETSTDVDEKPKKTMKETQSPAPLQNSSGDPAEEESPV
Take B1: the Km turned out to be 5.6 mM.
